The results in this text go back to paper PMC3592866.

Assay [1] addresses pXqua QUA1-C59S (protease-liberated peptide) (Xenopus laevis). Description: AUC; sedimentation equilibrium of released QUA1-C59S, global single species fits; monomer to dimer.
Assay [2] concerns the target pXqua MltBP-QUA1-C59S fusion protein (Xenopus laevis). Put plainly: SEC; analytical Superdex-200 PC 3.2/30 of MltBP-QUA1 fusion proteins; 20 mM Tris-HCl pH 7.9, 150 mM NaCl, 0.05% sodium azide; 50 uL at 1 mg/mL loaded; apparent aggregation numbers from calibration; monomer to dimer. For orientation: SEC sorts molecules by how far they enter the pores of the column.
The target in assay [3] is pXqua MltBP-QUA1-C59S/R67E/E72R fusion protein (Xenopus laevis). The assay is described as above.
Assay [4] addresses wild type pXqua MltBP-QUA1 fusion protein (Xenopus laevis). The description is as above.
Assay [5] deals with pXqua MltBP-QUA1-C59S/R67A fusion protein (Xenopus laevis). The description is as above.
For assay [6], the target named is pXqua MltBP-QUA1-C59S/R67A/E72G fusion protein (Xenopus laevis). Described as above.

Where “and” joins values, the source holds several entries; their conditions need not be identical. Equal entries are not always repeated.

One may read the stoichiometry N as a count of units in the complex or per binding partner. Consider “pXqua QUA1-C59S (protease-liberated peptide) (domain or fragment)”, for which the stoichiometry N in assay [1] came out at 2.
Take “pXqua MltBP-QUA1-C59S fusion protein (domain or fragment)”: in assay [2], the AAN (apparent aggregation number) came out at 2.7 and the stoichiometry N stood at 2.
Turning to “pXqua MltBP-QUA1-C59S/R67E/E72R fusion protein (domain or fragment)”, in assay [3], the AAN (apparent aggregation number) was found to be 2.1 and the percent of species in the dimeric state stood at 70%.
As to “wild type pXqua MltBP-QUA1 fusion protein (domain or fragment)”, the stoichiometry N in assay [4] was 4 and 2.
For “pXqua MltBP-QUA1-C59S/R67A fusion protein (domain or fragment)”, in assay [5], the AAN (apparent aggregation number) was determined as 1.7 and the percent of species in the dimeric state amounted to 40%.
“pXqua MltBP-QUA1-C59S/R67A/E72G fusion protein (domain or fragment)”: the fraction eluting in the dimer peak in assay [6] was 0.33.
